Positions count from the first letter of the chain named.
Legend:
Assay in all cases: EMSA; EMSA: PBS pH 7.4 (or KH2PO4/10 mM MgCl2 pH 6.0), 3.6 or 5 uM protein, 25 uM nt DNA, 37 C 15 min per strand, 0.8% agarose 1x TBE; cryo-EM: 20 mM KH2PO4 (Results: 10 mM), 10 mM MgCl2 pH 6.0, 37 C; native MS: 100 mM ammonium acetate pH 7, 37 C
Settings in all cases: protein: recombinant, tags: N-terminal 6His vector tag (20 aa) retained, chain copies: 10
[1] = target: T1, LiRecT V98W (Listeria innocua CLIP 11262, UniProt Q92FL9 1-271, V98W)
T1 sequence: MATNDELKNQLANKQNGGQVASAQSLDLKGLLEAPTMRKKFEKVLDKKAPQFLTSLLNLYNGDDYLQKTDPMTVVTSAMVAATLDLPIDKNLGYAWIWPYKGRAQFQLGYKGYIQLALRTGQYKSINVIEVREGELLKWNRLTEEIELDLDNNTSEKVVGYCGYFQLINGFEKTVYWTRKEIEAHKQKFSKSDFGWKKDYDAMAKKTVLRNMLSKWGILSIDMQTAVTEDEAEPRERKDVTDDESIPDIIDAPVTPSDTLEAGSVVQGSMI

[2] = target: T2, LiRecT V98A/Y100A (Listeria innocua CLIP 11262, UniProt Q92FL9 1-271, V98A;Y100A)
T2 sequence: T1 sequence with W98A, Y100A

[3] = target: T3, LiRecT K180A (Listeria innocua CLIP 11262, UniProt Q92FL9 1-271, K180A)
T3 sequence: T1 sequence with W98V, K180A

[4] = target: T4, LiRecT Q107A (Listeria innocua CLIP 11262, UniProt Q92FL9 1-271, Q107A)
T4 sequence: T1 sequence with W98V, Q107A

[5] = target: T5, LiRecT Y100A (Listeria innocua CLIP 11262, UniProt Q92FL9 1-271, Y100A)
T5 sequence: T1 sequence with W98V, Y100A

[6] = label: 5'-Cy3;5'-Cy5, 49 bp, 1 nt 5' overhang at each end

Measured: binding result

GCGGATGGCTTAGAGCAGAATCGCCCTGCATAGCTCGATTTTTGCGGATG (ssDNA) [Cy3-50mer]
binds: [1]; label: 5'-Cy3, single strand | [2]; label: 5'-Cy3, single strand | [3]; label: 5'-Cy3, single strand | [4]; label: 5'-Cy3, single strand | [5]; label: 5'-Cy3, single strand

CCATCCGCAAAAATCGAGCTATGCAGGGCGATTCTGCTCTAAGCCATCCG (ssDNA) [Cy5-50mer]
binds: [1]; label: 5'-Cy5, single strand | [2]; label: 5'-Cy5, single strand | [3]; label: 5'-Cy5, single strand | [4]; label: 5'-Cy5, single strand | [5]; label: 5'-Cy5, single strand

B1: 50-mer duplex intermediate (sequential addition) (dsDNA)
DNA 1: GCGGATGGCTTAGAGCAGAATCGCCCTGCATAGCTCGATTTTTGCGGATG
DNA 2: CCATCCGCAAAAATCGAGCTATGCAGGGCGATTCTGCTCTAAGCCATCCG
binds: [1]; [6] | [2]; [6] | [3]; [6] | [4]; [6] | [5]; [6]

Source: article PMC9772228, “Structure of a RecT/Redβ family recombinase in complex with a duplex intermediate of DNA annealing”
